The values that follow come from article doi:10.1101/2021.09.20.461157 (bioRxiv, 2021).

The series deals with the molecule itself. The series is described as follows: cryo-EM structure.

B1: Mouse EHD4 (residues 22-541, EHD4^ΔN) (domain or fragment, UniProt Q9EQP2 22-541, looked up)
chain: QTVTGGLRSLYQRKVLPLEEAYRFHEFHSPALEDADFENKPMILLVGQYSTGKTTFIRYLLEQDFPGMRIGPEPTTDSFIAVMYGETEGSTPGNALVVDPKKPFRKLSRFGNAFLNRFMCSQLPNQVLKSISIIDSPGILSGEKQRISRGYDFCQVLQWFAERVDRIILLFDAHKLDISDEFSEAIKAFRGQDDKIRVVLNKADQVDTQQLMRVYGALMWSLGKVINTPEVLRVYIGSFWAQPLQNTDNRRLFEAEAQDLFRDIQSLPQKAAVRKLNDLIKRARLAKVHAYIISYLKKEMPNMFGKENKKRELIYRLPEIYVQLQREYQISAGDFPEVKAMQEQLENYDFTKFHSLKPKLIEAVDNMLTNKISSLMGLISQEEMNMPTQMVQGGAFDGTTEGPFNQGYGEGAKEGADEEEWVVAKDKPVYDELFYTLSPINGKISGVNAKKEMVTSKLPNSVLGKIWKLADCDCDGMLDEEEFALAKHLIKIKLDGYELPNSLPPHLVPPSHRKSLPKAD
As for B1, the binding result was “binds”.
